Peptide exchange yield data for 49 molecules are collected here from patent publication US20170037110A1 (IMMATICS BIOTECHNOLOGIES, published 2017).

A value given as a limit tells only on which side of the number the result lay.

This assay addresses T1, HLA-A*02:01 (human).
T1 construct: monomers captured on streptavidin plates; also called MHC class I
Put plainly: UV peptide exchange ELISA. An excerpt: Candidate peptides for T cell based therapies according to the present invention were further tested for their MHC binding capacity (affinity). The individual peptide-MHC complexes were produced by UV-ligand exchange, where a UV-sensitive peptide is cleaved upon UV-irradiation, and exchanged with the peptide of interest as analyzed. Only peptide candidates that can effectively bind and stabilize the peptide-receptive MHC molecules prevent dissociation of the MHC complexes. To determine the yield of the exchange reaction, an ELISA was performed based on the detection of the light chain (p2m) of stabilized MHC complexes.
96 well MAXISorp plates (NUNC) were coated over night with 2 μg/ml streptavidin in PBS at room temperature, washed 4× and blocked for 1 h at 37° C. in 2% BSA containing blocking buffer. […] Peptide-MHC monomers of the UV-exchange reaction were diluted 100 fold in blocking buffer. Samples were incubated for 1h at 37° C., washed four times, incubated with 2 μg/ml HRP conjugated anti-p2m for 1h at 37° C., washed again and detected with TMB solution that is stopped with […]. Absorption was measured at 450 nm.
On the technique in general: ELISA stands for enzyme-linked immunosorbent assay.

For FGLDLVTEL, the peptide exchange yield lay in the range of 50 to 75%.

Molecule RQISIRGIVGV registered a peptide exchange yield of 50 to 75%.

On to GLFPVTPEAV, for which the peptide exchange yield was 50 to 75%.

Regarding YLLPEEYTSTL, the peptide exchange yield was not below 75%.

In turn, QLLDADGFLNV showed a peptide exchange yield of 50 to 75%.

For the molecule ILFEDIFDV, the peptide exchange yield lay within 50 to 75%.

The molecule FLATFPLAAV came in with a peptide exchange yield not below 75%.

Take GLVGNPLPSV: the peptide exchange yield is not below 75%.

The molecule KLFDVDEDGYI yielded a peptide exchange yield of 50 to 75%.

Consider ALAQYLITA, for which the peptide exchange yield fell in the range of 50 to 75%.

Turning to YLMDINGKMWL, the peptide exchange yield was 50 to 75%.

FLIDDKGYTL registered a peptide exchange yield of 20 to 50%.

For the molecule ALDDGTPAL, the peptide exchange yield was in the range of 20 to 50%.

ALQRKLPYV: the peptide exchange yield was in the range of 50 to 75%.

With SLNDEVPEV, the peptide exchange yield was 20 to 50%.

As for KIFEMLEGV, the peptide exchange yield lay within 50 to 75%.

With ALLEGVNTV, the peptide exchange yield lay in the range of 50 to 75%.

Take GLFADLLPRL: the peptide exchange yield was in the range of 50 to 75%.

RLQETLSAA showed a peptide exchange yield of 50 to 75%.

As for ALDEMGDLLQL, the peptide exchange yield lay within 50 to 75%.

VLYSYTIITV came in with a peptide exchange yield of 20 to 50%.

TLFFQQNAL registered a peptide exchange yield of 20 to 50%.

Take KMLDGASFTL: the peptide exchange yield was in the range of 50 to 75%.

YLFENISQL: the peptide exchange yield fell in the range of 50 to 75%.

In the case of ALPLFVITV, the peptide exchange yield is 50 to 75%.

FLSSLTETI showed a peptide exchange yield of 50 to 75%.

On to LLWAGTAFQV, for which the peptide exchange yield is 50 to 75%.

With MLLEAPGIFL, the peptide exchange yield lay within 50 to 75%.

The molecule KILDADIQL returned a peptide exchange yield not below 75%.

The molecule RVANLHFPSV had a peptide exchange yield of 50 to 75%.

Take ALTEIAFVV: the peptide exchange yield is not below 75%.

On to LLLPLQILL, for which the peptide exchange yield fell in the range of 50 to 75%.

For LLDSASAGLYL, the peptide exchange yield was in the range of 50 to 75%.

On to FTLGNVVGMYL, for which the peptide exchange yield was not below 75%.

Regarding LLQEGQALEYV, the peptide exchange yield lay within 20 to 50%.

As for SLLDEIRAV, the peptide exchange yield is 50 to 75%.

For the molecule NLPEYLPFV, the peptide exchange yield lay within 50 to 75%.

The molecule SLVGLLLYL showed a peptide exchange yield not below 75%.

Regarding FLIANVLYL, the peptide exchange yield is 10 to 20%.

FLFDEEIEQI displayed a peptide exchange yield of 50 to 75%.

Consider YLNHLEPPV, for which the peptide exchange yield is 50 to 75%.

Consider ALLPQPKNLTV, for which the peptide exchange yield lay within 50 to 75%.

KVLNELYTV returned a peptide exchange yield of 50 to 75%.

For the molecule FQIDPHSGLVTV, the peptide exchange yield lay within 20 to 50%.

GAAKDLPGV gave a peptide exchange yield of 20 to 50%.

YLMEGSYNKVFL displayed a peptide exchange yield of 20 to 50%.

Take YLYSVEIKL: the peptide exchange yield is not below 75%.

YQQAQVPSV showed a peptide exchange yield of 50 to 75%.

Regarding KVLEVTEEFGV, the peptide exchange yield fell in the range of 50 to 75%.
